Data taken from FireProtDB (doi:10.1111/j.1432-1033.1993.tb17904.x).

Conditions: Carica papaya, Thermal, DSC, glycine-HCl 5 mM, reversible: yes

Chain of Chymopapain wild type, P14080 (P14080 whole entry): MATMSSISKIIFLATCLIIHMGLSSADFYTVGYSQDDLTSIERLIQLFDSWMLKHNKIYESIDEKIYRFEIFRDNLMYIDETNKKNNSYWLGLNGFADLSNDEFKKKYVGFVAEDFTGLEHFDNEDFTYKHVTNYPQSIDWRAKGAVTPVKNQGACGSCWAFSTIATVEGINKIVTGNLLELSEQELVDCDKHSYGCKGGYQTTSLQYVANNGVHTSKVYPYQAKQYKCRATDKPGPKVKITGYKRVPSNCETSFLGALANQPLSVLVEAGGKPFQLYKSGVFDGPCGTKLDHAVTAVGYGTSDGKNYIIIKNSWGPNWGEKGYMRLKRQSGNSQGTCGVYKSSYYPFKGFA

Substance: Chymopapain wild type, P14080
- Tm (pH 1.9): 69.3 °C
- unfolding enthalpy (calorimetric) (pH 1.9): 147 kcal/mol
- unfolding enthalpy (van 't Hoff) (pH 1.9): 88.3 kcal/mol
- Tm (pH 2.4): 71.6 °C
- unfolding enthalpy (calorimetric) (pH 2.4): 154 kcal/mol
- unfolding enthalpy (van 't Hoff) (pH 2.4): 87.9 kcal/mol
- Tm (pH 2.9): 78.3 °C
- unfolding enthalpy (calorimetric) (pH 2.9): 175 kcal/mol
- unfolding enthalpy (van 't Hoff) (pH 2.9): 95.2 kcal/mol
- Tm (pH 3.5): 85.8 °C
- unfolding enthalpy (calorimetric) (pH 3.5): 232 kcal/mol
- unfolding enthalpy (van 't Hoff) (pH 3.5): 125 kcal/mol
